As a reminder, the EC50 is the concentration needed to bring the measured effect to its halfway point. A high value points to a less potent agent. As usually defined, the koff is the first-order rate constant of dissociation. For orientation: kon means a measure of how fast the partners come together.

Experiment [1] addresses T1, cell surface-bound human GPC3 on GPC3+ HepG2 cells (human, UniProt P51654 25-560, GPI anchor and heparin sulfate side chains, as the filing describes native GPC3).
T1 construct: Endogenous GPC3 of the HepG2 line; also called Glypican 3; native GPC3
The experiment in a line: FACS on GPC3+ HepG2 cells, labelled on the sheet GPC3A L2K against control L2K; control L2K median 93.8; axis PE-A.
Method: APC-conjugated anti-His tag mouse antibody (R&D Systems) was added in a volume of 100 μl, a 20-fold dilution of 5% FBS in PBS and 0.05% NaN₃ and incubated for 1 hour at 4° C. in the dark, then washed twice with PBS. The cells were fixed in 3-fold dilution of fixation buffer (BioLegend) in PBS in a volume of 150 μl.

Experiment [2] addresses T2, full-length human GPC3 over-expressed on SK-Hep1-GPC3 cells (human, UniProt P51654 25-560).
T2 construct: also called GPC3 over-expressing SK-Hep1 cells
Nature of the experiment: FACS, GPC3A L2K on SK-Hep1-GPC3 cells, APC anti-His; same L2K on GPC3-negative SK-Hep1 median 61.6. In general terms: In flow cytometry, cells or beads pass a laser one at a time.
Method: Cells were then washed once with PBS. APC-conjugated anti-His tag mouse antibody (R&D Systems) was added to the washed cells in a volume of 100 μl, at 20-fold dilution of 5% FBS in PBS and 0.05% NAN₃ and incubated for 1 hour at 4° C. in the dark. The cells were then washed twice with PBS. The cells were fixed in 3-fold dilution of fixation buffer (BioLegend) in PBS in a volume of 150 μl.

Experiment [3] addresses T1, cell surface-bound human GPC3 on GPC3+ …. The experiment in a line: FACS, mIgG1 on GPC3-positive HepG2 cells, PE anti-mouse IgG (H and L); control mIgG1 median 93.8.
Experiment [4] shares this target. The experiment in a line: FACS titration on GPC3+ HepG2 cells, anti-His detection.
Method: (§1) APC-conjugated anti-His tag mouse antibody (R&D Systems) was added in a volume of 100 μl, a 20-fold dilution of 5% FBS in PBS and 0.05% NaN₃ and incubated for 1 hour at 4° C. in the dark, then washed twice with PBS. The cells were fixed in 3-fold dilution of fixation buffer (BioLegend) in PBS in a volume of 150 μl. As a separate control, HepG2 cells were also incubated with APC-conjugated anti-His tag mouse antibody (R&D Systems) in the absence of any L2K bispecific antibody.
Experiment [5] shares this target. Nature of the experiment: apparent Kd from FACS on GPC3+ HepG2 cells.
Method: as §1
Experiment [6] concerns the target T3, biotinylated recombinant human GPC3(560) (human, biotin on the C-terminal BirA substrate peptide ; Biotin on a lysine of the C-terminal BirA substrate peptide, which is not in the letters.).
T3 construct: Made in E. coli BL21 (pET-27b) from inclusion bodies and biotinylated with BirA; also called bt-GPC3(560); soluble bt-GPC3(560) protein
Nature of the experiment: SPR, Biacore X100, single-cycle kinetics, bt-GPC3(560) captured on chip, 1:1 model. A general note: Surface plasmon resonance follows binding to a sensor surface in real time, without labels.
Method: All of the proteins used in the assay were diluted in HBS-E buffer prior to use. Briefly, 5-10 μg/ml of bt-GPC3₍₅₆₀₎ was immobilized onto a sensor chip pre-functionalized with CAPture Reagent and injected onto the flow cell. Affinity of the L2K bispecific antibodies for immobilized antigen was measured by injection of the various bispecific antibodies at 0.3-5 mg/ml with a 90 second association phase followed by a 90 second dissociation phase at a flow rate of 30 μl/min. At the end of each run, the surface of the sensor chip was regenerated using the reagents provided in the Biotin CAPture kit. Binding constants were determined by nonlinear regression analysis using a 1:1 binding model (BIACORE™ X-100 evaluation software, FIGS. 15A and 15B). The association-on-rate-kₒₙ, affinity constant-kₐ, dissociation constant-kd, and equilibrium dissociation constant-Kd were then calculated for each L2K clone (Table 14).

B1: #51 GPC3A L2K (bispecific antibody)
tandem di-scFv: QAVLTQPSSASGAPGQRVTISCTGGSSNIGAGYDVHWYQQLPGTAPKLLIYGNSNRPSGVPDRFSGSKSGTSASLAITGLQAEDEADYYCQSYDSSLSGYVFGTGTKVTVLGSRGGGGSGGGGSGGGGSLEMAQVQLVQSGAEVKKPGSSVKVSCKASGGAFSSYAISWVRQAPGQGLEWMGGIIPIFGTANYAQKFQGRVTITADESTSTAYMELSSLRSEDTAVYYCARMLYLSGRYYWDSWGQGTLVTVSSTSGGGGSDVQLVQSGAEVKKPGASVKVSCKASGYTFTRYTMHWVRQAPGQGLEWIGYINPSRGYTNYADSVKGRFTITTDKSTSTAYMELSSLRSEDTATYYCARYYDDHYCLDYWGQGTTVTVSSGEGTSTGSGGSGGSGGADDIVLTQSPATLSLSPGERATLSCRASQSVSYMNWYQQKPGKAPKRWIYDTSKVASGVPARFSGSGSGTDYSLTINSLEAEDAATYYCQQWSSNPLTFGGGTKVEIKHHHHHH
notes: also called GPC3A-51 L2K
On to B1, for which the “Median : PE-A” value in experiment [1] came to 12200. In addition, the “Median : APC-A” value in experiment [2] stood at 677.

B2: anti-GPC3 mIgG1 clone A-39 (antibody, V domains shown)
VH: QVQLVQSGGGLVHPGGSLRLSCAGSGFTFSSYAMHWVRQAPGKGLEWVSAIGTGGGTYYADSVKGRFTISRDNAKNSLYLQMNSLRAEDTAVYYCARYGRKSIDAWGQGTLVTVSS
VL: SYVLTQPPSVSVAPGKTARITCGGNNIGSKSVHWYQQKPGQAPVLVIYYDSDRPSGIPERFSGSNSGNTATLTISRVEAGDEADYYCQVWDSSSDHWVFGGGTKLTVLG
notes: also called anti-GPC3 mIgG1 A-39
For the molecule B2, the “Median : PE-A” value in experiment [3] is 6380.

B3: GPC3A-55 L2K (bispecific antibody)
chain: QPVLTQPPSVSVAPGKTARITCGGNNIGSKSVHWYQQKPGQAPVLVIYYDSDRPSGIPERFSGSNSGNTATLTISRVEAGDEADYYCQVWDSSSDHYVFGTGTKVTVLGSRGGGGSGGGGSGGGGSLEMAQVQLVQSGAEVKKPGASVKVSCKASGYTFTSYYMHWVRQAPGQGLEWMGIINPSGGSTSYAQKFQGRVTMTRDTSTSTVYMELSSLRSEDTAVYYCARWHGGPYDYWGQGTLVTVSSTSGGGGSDVQLVQSGAEVKKPGASVKVSCKASGYTFTRYTMHWVRQAPGQGLEWIGYINPSRGYTNYADSVKGRFTITTDKSTSTAYMELSSLRSEDTATYYCARYYDDHYCLDYWGQGTTVTVSSGEGTSTGSGGSGGSGGADDIVLTQSPATLSLSPGERATLSCRASQSVSYMNWYQQKPGKAPKRWIYDTSKVASGVPARFSGSGSGTDYSLTINSLEAEDAATYYCQQWSSNPLTFGGGTKVEIKHHHHHH
The molecule B3 had an EC50 in experiment [4] of 0.045 mg/L. The Kd in experiment [5] was determined as 0.86 nM. For the same molecule, in experiment [6], the Kd was 2.3 nM, the dissociation rate constant (koff) stood at 0.00161 s⁻¹ and the on-rate constant (kon) turned out to be 705000 M⁻¹ s⁻¹.

B4: GPC3A-45 L2K (bispecific antibody)
chain: QSVLTQPPSVSGTPGQRVIISCPGSTSNIGTNTVNWYQQFPGTAPKLLIYSNNQRPSGVPDRFSGSKSGTSASLAISGLQSEDEADYYCAAWDDSLNGVVFGGGTKLTVLGSRGGGGSGGGGSGGGGSLEMAQMQLVQSGGGLVKPGGSLRLSCAASGFTFSDYYMSWIRQAPGKGLEWVSYISSSGSTIYYADSVKGRFTISRDNAKNSLYLQMNSLRAEDTAVYYCARASDLYGDWGQGTLVTVSSTSGGGGSDVQLVQSGAEVKKPGASVKVSCKASGYTFTRYTMHWVRQAPGQGLEWIGYINPSRGYTNYADSVKGRFTITTDKSTSTAYMELSSLRSEDTATYYCARYYDDHYCLDYWGQGTTVTVSSGEGTSTGSGGSGGSGGADDIVLTQSPATLSLSPGERATLSCRASQSVSYMNWYQQKPGKAPKRWIYDTSKVASGVPARFSGSGSGTDYSLTINSLEAEDAATYYCQQWSSNPLTFGGGTKVEIKHHHHHH
B4 registered an EC50 in experiment [4] of 0.12 mg/L. Also, the Kd in experiment [5] came to 2.4 nM. In experiment [6], the Kd came to 3.5 nM, the koff was determined as 0.000455 s⁻¹ and the kon was found to be 128000 M⁻¹ s⁻¹.

B5: anti-GPC3 mIgG1 clone A-58 (antibody, V domains shown)
VH: QVQLVQSGADVRKPGASVKVSCKASGYTFASHGISWVRQAPGQGLEWLGWISPYTGNTNYAQKFQGRVTMATDTSTSTAYMELRSLRSDDTAIYYCARGKRTLASCFDYWGQGTLVTVSS
VL: QSVLTQPPSVSVAPGKTARITCGGNNIGSKSVHWYQQKPGQAPVLVVYDDSDRPSGIPERFSGSNSGNTATLTISRVEAGDEADYYCQVWDSSSDHVFGTGTKVTVLG
notes: Fused to mouse IgG1 heavy chain and light chain constant regions; also called GPC3A mIgG1 clone A-58
With B5, the “Median : PE-A” value in experiment [3] stood at 8030.

B6: #39 GPC3A L2K (bispecific antibody)
tandem di-scFv: SYVLTQPPSVSVAPGKTARITCGGNNIGSKSVHWYQQKPGQAPVLVIYYDSDRPSGIPERFSGSNSGNTATLTISRVEAGDEADYYCQVWDSSSDHWVFGGGTKLTVLGSRGGGGSGGGGSGGGGSLEMAQVQLVQSGGGLVHPGGSLRLSCAGSGFTFSSYAMHWVRQAPGKGLEWVSAIGTGGGTYYADSVKGRFTISRDNAKNSLYLQMNSLRAEDTAVYYCARYGRKSIDAWGQGTLVTVSSTSGGGGSDVQLVQSGAEVKKPGASVKVSCKASGYTFTRYTMHWVRQAPGQGLEWIGYINPSRGYTNYADSVKGRFTITTDKSTSTAYMELSSLRSEDTATYYCARYYDDHYCLDYWGQGTTVTVSSGEGTSTGSGGSGGSGGADDIVLTQSPATLSLSPGERATLSCRASQSVSYMNWYQQKPGKAPKRWIYDTSKVASGVPARFSGSGSGTDYSLTINSLEAEDAATYYCQQWSSNPLTFGGGTKVEIKHHHHHH
notes: also called GPC3A-39 L2K
Regarding B6, the “Median : PE-A” value in experiment [1] was 6380. Moreover, the “Median : APC-A” value in experiment [2] was found to be 445.

B7: GPC3A-34 L2K (bispecific antibody)
chain: QPVLTQPPSASGTPGQRVTISCSGSSSNIGSNNVIWYQQLPGAAPKLLIYSNHRRPSGVPDRFSGSRSGTSASLAISGLQSEDEADYYCAAWDDSLDGYLFGTGTKVTVLGSRGGGGSGGGGSGGGGSLEMAQVQLQQWGAGLLKPSETLSLTCAVYGGSFSGYYWSWIRQPPGKGLEWIGEINHSGSTNYNPSLKSRVTISVDTSKNQFSLELSSVTAADTAVYYCARGYGGRFDYWGQGTLVTVSSTSGGGGSDVQLVQSGAEVKKPGASVKVSCKASGYTFTRYTMHWVRQAPGQGLEWIGYINPSRGYTNYADSVKGRFTITTDKSTSTAYMELSSLRSEDTATYYCARYYDDHYCLDYWGQGTTVTVSSGEGTSTGSGGSGGSGGADDIVLTQSPATLSLSPGERATLSCRASQSVSYMNWYQQKPGKAPKRWIYDTSKVASGVPARFSGSGSGTDYSLTINSLEAEDAATYYCQQWSSNPLTFGGGTKVEIKHHHHHH
notes: also called anti-GPC3xCD3 di-scFv derived from GPC3A-34
The molecule B7 came in with an EC50 in experiment [4] of 0.11 mg/L. The Kd in experiment [5] is 2 nM. Further, in experiment [6], the Kd was 3.5 nM, the koff is 0.0014 s⁻¹ and the kon was 400000 M⁻¹ s⁻¹.

B8: anti-GPC3 mIgG1 clone A-46 (antibody, V domains shown)
VH: QVQLVQSGAEVKKPGASVTVSCKASGYRFSNYGVSWVRQAPGQGLEWMGWISGSNGNTNYAQKFLGRVTMTTDTSTTTAYMELSSLRSDDTAVYYCARGNRRYYSPIIDPWGQGTLVTVSS
VL: QAVLTQPPSVSGTPGQRVTISCSGSSSNFGSNTVHWYQQVPGTAPKLLIFSNTQRPSEIPDRFSGSKSGTSASLAISGLQSEDEADYYCAAWDDSLTGVVFGGGTKLTVLG
notes: Fused to mouse IgG1 heavy chain and light chain constant regions; also called GPC3A mIgG1 clone A-46
Regarding B8, the “Median : PE-A” value in experiment [3] worked out at 9860.

B9: anti-GPC3 mIgG1 clone A-56 (antibody, V domains shown)
VH: QVQLQQSGAEVKKFGASVKVSCKASGYSFNDYYIHWVRQAPGQGLEWMGWINPNNGDTKYEKKWQGRVTMTRDTSITTAYMELSSLRSDDTAVYYCARFSTHNWWWPTYDYWGQGTLVTVSS
VL: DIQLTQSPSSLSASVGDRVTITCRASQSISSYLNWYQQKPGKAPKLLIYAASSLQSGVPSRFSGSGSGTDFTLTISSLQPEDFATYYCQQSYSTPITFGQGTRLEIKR
notes: Fused to mouse IgG1 heavy chain and light chain constant regions
Turning to B9, in experiment [3], the “Median : PE-A” value was found to be 5630.

B10: GPC3A-37 L2K (bispecific antibody)
chain: QSVLTQPPSVSAAPGQRVTISCSGTRSNIGSDYVSWYQHLPGTAPKLLVYGDNLRPSGIPDRFSASKSGTSATLGITGLQTGDEADYYCGTWDYTLNGVVFGGGTKLTVLGSRGGGGSGGGGSGGGGSLEMAQVQLVESGGGLVQPGGSLRLSCAASGFTFSSYAMSWVRQAPGKGLEWVSVIYSGGSSTYYADSVKGRFTISRDNSKNTLYLQMNSLRAEDTAVYYCARTSYLNHGDYWGQGTLVTVSSTSGGGGSDVQLVQSGAEVKKPGASVKVSCKASGYTFTRYTMHWVRQAPGQGLEWIGYINPSRGYTNYADSVKGRFTITTDKSTSTAYMELSSLRSEDTATYYCARYYDDHYCLDYWGQGTTVTVSSGEGTSTGSGGSGGSGGADDIVLTQSPATLSLSPGERATLSCRASQSVSYMNWYQQKPGKAPKRWIYDTSKVASGVPARFSGSGSGTDYSLTINSLEAEDAATYYCQQWSSNPLTFGGGTKVEIKHHHHHH
notes: also called anti-CD3/anti-GPC3 BsAb
For B10, the response in experiment [4] was half-maximal at 0.048 mg/L (EC50). Further, the Kd in experiment [5] was determined as 0.92 nM. In addition, in experiment [6], the Kd was 5.1 nM, the koff was found to be 0.00289 s⁻¹ and the kon turned out to be 567000 M⁻¹ s⁻¹.

(Values after patent US20230048360A1 (EUREKA THERAPEUTICS, published 2023).)
